According to patent US20190010233A1 (JIANGSU HYAMAB PHARMACEUTICAL, published 2019):

T1: hPD-L2 (human, UniProt Q9BQ51 20-219, limits assumed)
T1 construct: Bought protein
T1 sequence (looked up): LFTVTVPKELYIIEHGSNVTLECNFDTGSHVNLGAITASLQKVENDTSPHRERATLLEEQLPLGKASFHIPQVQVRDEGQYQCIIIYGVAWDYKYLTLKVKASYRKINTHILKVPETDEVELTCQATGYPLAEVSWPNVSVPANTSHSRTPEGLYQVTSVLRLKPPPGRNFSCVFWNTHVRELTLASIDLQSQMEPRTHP


Assays:
[1] = molecular target: T2, full length human PD-L1 on cells (human, UniProt Q9NZQ7 19-290); test: cell-based or functional assay
T2 sequence (Q9NZQ7 19-290 limits assumed): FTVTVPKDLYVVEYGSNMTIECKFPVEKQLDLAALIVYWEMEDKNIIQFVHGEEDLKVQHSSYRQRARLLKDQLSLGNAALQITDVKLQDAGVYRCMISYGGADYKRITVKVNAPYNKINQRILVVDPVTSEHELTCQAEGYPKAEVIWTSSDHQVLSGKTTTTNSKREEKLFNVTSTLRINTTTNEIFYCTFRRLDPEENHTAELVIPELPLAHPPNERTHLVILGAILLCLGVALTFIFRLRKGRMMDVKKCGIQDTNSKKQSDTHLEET

hPD-L2 = molecular target: T1, hPD-L2; test: ELISA (numbers in Table 9)
Description: (§1) 100 μL of the diluted recombinant proteins were added to each well of 96-well plate. The plates were sealed with plastic film and incubated at 4° C. overnight. The plates were washed twice with wash buffer (PBS+0.01% (v/v) Tween20), and incubated with blocking buffer (PBS+0.01% (v/v) Tween20+1% (w/w) BSA) at room temperature for 2 hours. The blocking buffer was aspirated away, and 100 μL of purified anti-PD-L1 antibodies were added to each well and incubated for 2 hours at 37° C. The plates were washed three times with wash buffer (PBS+0.01% (v/v) Tween20). HRP-conjugated secondary antibody (Sigma) was added to each well and incubated for 2 hours at 37° C. After the plates were washed three times with wash buffer, 100 μL TMB substrate were added to each well, and the plates were incubated for 30 minutes at room temperature. 100 μL stop solution (0.1N HCl) was added to each well to stop the reaction.

[2] = molecular target: T2, full length human PD-L1 on cells; test: FACS CHO-K1-hPD-L1, 100.00 nM mAb
[3] = molecular target: T3, human PD-L1^ECD-hFc protein (human, UniProt Q9NZQ7 19-239, biotinylated in the PD-1 binding ELISA (Table 3) and in the Octet assay (Table 12)); test: BLI Octet Red 96, biotinylated PD-L1-hFc on SA sensor
T3 construct: The plain and the biotinylated protein are kept as one molecule; also called PD-L1-hFc; Immunogen A; not shown: human IgG Fc fragment (hFc)
T3 sequence (Q9NZQ7 19-239): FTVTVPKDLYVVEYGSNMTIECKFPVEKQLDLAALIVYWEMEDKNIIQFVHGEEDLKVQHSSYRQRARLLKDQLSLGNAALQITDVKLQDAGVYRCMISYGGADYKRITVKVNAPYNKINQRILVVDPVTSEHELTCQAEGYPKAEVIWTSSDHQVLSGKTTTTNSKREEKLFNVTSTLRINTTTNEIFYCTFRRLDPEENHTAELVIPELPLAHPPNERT
Description: Dissociation constants were determined by Octed red 96 (Fortiebio). The detailed operation and methods were followed according to the specifications of the instrument provided by the manufacturer. Briefly, a streptavidin sensor (SA sensor, Fortiebio) was used for the affinity determination. […] The reaction mixture was further incubated in PBS buffer (pH 7.4) containing 0.1% (v/w) BSA and 0.02% (v/v) Tween20 at 30° C. for 5 minutes.

[4] = molecular target: T3, human PD-L1^ECD-hFc protein; test: ELISA, 10 nM mAb
Description: as §1

[5] = molecular target: T4, full length cyno PD-L1 on cells (cyno, UniProt G7PSE7 19-290); test: FACS CHO-K1-cPD-L1, 100.00 nM mAb
T4 construct: also called CHO-K1-cPD-L1
T4 sequence (G7PSE7 entry or part of it limits assumed): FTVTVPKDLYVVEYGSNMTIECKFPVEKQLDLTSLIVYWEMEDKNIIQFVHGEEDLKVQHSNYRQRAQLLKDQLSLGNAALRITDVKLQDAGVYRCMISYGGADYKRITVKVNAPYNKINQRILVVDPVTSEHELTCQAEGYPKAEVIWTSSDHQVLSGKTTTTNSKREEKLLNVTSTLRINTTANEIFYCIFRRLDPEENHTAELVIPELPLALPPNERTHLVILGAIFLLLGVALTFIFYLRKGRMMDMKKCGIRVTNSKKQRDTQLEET
Description: (§2) Other CHO-K1 were stably transfected with a pIRES plasmid containing the nucleic acid sequence encoding full length cyno PD-L1 to generate CHO-K1 cells stably expressing cyno PD-L1 (herein referred to as CHO-K1-cPD-L1 cells). […] The culture media was aspirated, and the cells were washed twice with HBSS (Hanks Balanced Salt Solution, Invitrogen). The cells were treated with enzyme-free cell dissociation solution (Versene solution, Invitrogen) and collected. The cells were then washed twice with HBSS, cell counts were determined, and cells were resuspended with HBSS at 2×10⁶ cells/mL. Goat serum was added to the cell suspension to a final concentration of 1%, and the cells were blocked for 30 minutes on ice and then washed twice with HBSS. The cells were collected after centrifugation and resuspended in FACS buffer (HBSS+1% BSA, v/v) at 2×10⁶ cells/mL. 100 μL of the cell suspension were then added to each well of 96-well plate. 100 μL of purified anti-PD-L1 antibodies from Example 2 were added to each well of the 96-well plate and incubated for 2 hours on ice. […] The samples were washed three times with FACS buffer, and 100 μL fixation buffer (4% paraformaldehyde v/v) were added to each well and incubated for 10 minutes. The cells were then washed twice with FACS buffer and resuspended in 100 μL FACS buffer. The mean fluorescence intensity (MFI) was determined using FACS Calibur (BD), and the results are shown in FIGS. 7-8 and in Tables 10-11.

[6] = molecular target: T2, full length human PD-L1 on cells; test: FACS CHO-K1-hPD-L1, 0.0001 nM mAb
Description: as §2

[7] = molecular target: T3, human PD-L1^ECD-hFc protein; test: ELISA, 0.001 nM mAb
Description: as §1

[8] = molecular target: T2, full length human PD-L1 on cells; test: FACS CHO-K1-hPD-L1, 0.01 nM mAb
[9] = molecular target: T4, full length cyno PD-L1 on cells; test: FACS CHO-K1-cPD-L1, 0.001 nM mAb as printed (second such column)
Description: as §2

Binder	IFN-γ (pg/mL), PBMC stimulation, 0.001 µg/mL mAb [1] [pg/mL]	IFN-γ (pg/mL), PBMC stimulation, 0.01 µg/mL mAb [1] [pg/mL]	IFN-γ (pg/mL), PBMC stimulation, 0.1 µg/mL mAb [1] [pg/mL]	IFN-γ (pg/mL), PBMC stimulation, 1 µg/mL mAb [1] [pg/mL]	binding result (hPD-L2)	Mean fluorescence intensity [2]	Kd [3] [nM]	koff [3] [s⁻¹]	kon [3] [M⁻¹ s⁻¹]	OD450 nm [4]	Mean fluorescence intensity [5]	Mean fluorescence intensity [6]	IFN-γ (pg/mL), PBMC stimulation, 10 µg/mL mAb [1] [pg/mL]	OD450 nm [7]	Mean fluorescence intensity [8]	Mean fluorescence intensity [9]
chimeric anti-PD-L1 antibody 73D3G2 (antibody, V domains shown, Purified from hybridoma of Harbour H2L2 mice: human variable regions, rat constant regions) VH: EVQLVESGGGLVQPGGSLRLSCAASGFTFNTYWMNWVRQAPGRGLEWVANIKQDGGEKYYVDSVKGRFTISRDNAKNSLYLQMNSLRAEDTAMYYCARDGRSWYPDAFDIWGQGTVVTVSS VL: DIQMTQSPSTLSASVGDRVTITCRASQSISTWLAWYQQKLGKAPKLLIYEVSILESGVPSRFSGSGSGTEFTLTISSLQPDDFATYYCQQYHSFSSFGGGTRVEIK	3830	3280	9560	8760	no binding	124	< 0.001	< 1e-07	398000	2.09	137					
chimeric anti-PD-L1 antibody 78A11F6 (antibody, V domains shown, Purified from hybridoma of Harbour H2L2 mice: human variable regions, rat constant regions) VH: EVQLVESGGGLVQPGGSLRLSCAASGITFSSYWMSWVRQTPGKGLEWVANIKQDGSEKYYVKSVKGRFTISRDNAKNSLYLQMNSLRAEDTAVYYCVRDRAVPGTGAFDIWGQGTMVIVSS VL: DIQMTQSPSTLSASVGDRVTITCRASQSISNWLAWYQQKPGKAPKLLIYKASSLESGVPSRFSGSGSGTEFTLTISSLQPDDFATYYCQQYDSSLFTFGQGTKLEIK	3740	11100	6100	13000	no binding	232	0.148	3.64e-05	245000	1.72	144					
chimeric anti-PD-L1 antibody 73G11B3 (antibody, V domains shown, Purified from hybridoma of Harbour H2L2 mice: human variable regions, rat constant regions) VH: EVQLVESGGGLVQPGGSLRLSCVVSGFTFSSYWMSWVRQTPGKGLEWVANIKQDGSEKYYVDSVKGRLTISRDNAKNSLYLQMNSLRAEDTAVYYCVRDRAVPGTGALDIWGQGTMVTVSS VL: not shown	2400	5700	6290	7860		215	0.116	3.95e-05	341000	2.73	107	1.87	10700	0.21	3.96	1.78
chimeric anti-PD-L1 antibody 192D9E7 (antibody, V domains shown, Purified from hybridoma of Harbour H2L2 mice: human variable regions, rat constant regions) VH: EVQLVESGGGLVQPGGSLRLSCAASGFTFSSYWMSWVRQAPGKGLEWVADIKQDGSEKYYVDSVKGRFTISRDNAKNSLYLQMNSLRAEDTAVYYCTRDKPHWGGVMDAWGQGTSVTVSS VL: not shown	602	501	7470	8300		146	0.0519	2.63e-05	506000	2.69	87.9	3.58	15700	0.25	7.85	1.75
chimeric anti-PD-L1 antibody 105C5D7 (antibody, V domains shown, Purified from hybridoma of Harbour H2L2 mice: human variable regions, rat constant regions) VH: EVQLVESGGGLVQPGGSLRLSCAASGFTFSSYWMSWVRQAPGKGLEWVANIKQDGNEKYYVDSVKGRFTISRDNAKNSLYLQMNSLRAEDTAVYYCARNIKWGDAFDIWGQGTMVTVSS VL: DIQMTQSPSSLSASVGDRVTITCRASQSISSYLNWYQQKPGKAPKLLIYAASSLQSGVPSRFSGSGSGTDFTLTISSLQPEDFAIYSCQQSYSIPLTFGGGTKVEIK	1640	3380	5850	7570	no binding	182	0.245	0.000368	1.5e+06	1.56	120					
chimeric anti-PD-L1 antibody 127D2F3 (antibody, V domains shown, Purified from hybridoma of Harbour H2L2 mice: human variable regions, rat constant regions) VH: EVQLVESGGGLVQPGGSLRLSCVASGFTFSSYWMSWVRQAPGKGLEWVANIKQDGSEKYYVDSVKGRLTISRDNAKNSLYLQMKSLRAEDTAVYYCARDPIYSSYFDYWGQGILVTVSS VL: DIQMTQSPSSLSASVGDRVTITCRASQSISNYLNWYQQKPGKAPKLLIYAASSLQSGVPSRFSGSGSGTDFTLTISSLQPEDFAAYYCQQSYGIPFTFGPGTKVDIK	3380	7030	7610	8100		234	< 0.001	< 1e-07	368000	2.7	117	4.04	10100	0.24	5.31	1.78
